The values that follow come from PMC12727526, “Carbon-monoxide-driven bioethanol production operates through a tungsten-dependent catalyst” (Nature Chemical Biology, 2025).

One series has as its target T1, CaAFOR (AOR1) (Clostridium autoethanogenum, UniProt A0ABM5NPY3).
T1 construct: gene CAETHG_0092
T1 sequence (A0ABM5NPY3 1-607): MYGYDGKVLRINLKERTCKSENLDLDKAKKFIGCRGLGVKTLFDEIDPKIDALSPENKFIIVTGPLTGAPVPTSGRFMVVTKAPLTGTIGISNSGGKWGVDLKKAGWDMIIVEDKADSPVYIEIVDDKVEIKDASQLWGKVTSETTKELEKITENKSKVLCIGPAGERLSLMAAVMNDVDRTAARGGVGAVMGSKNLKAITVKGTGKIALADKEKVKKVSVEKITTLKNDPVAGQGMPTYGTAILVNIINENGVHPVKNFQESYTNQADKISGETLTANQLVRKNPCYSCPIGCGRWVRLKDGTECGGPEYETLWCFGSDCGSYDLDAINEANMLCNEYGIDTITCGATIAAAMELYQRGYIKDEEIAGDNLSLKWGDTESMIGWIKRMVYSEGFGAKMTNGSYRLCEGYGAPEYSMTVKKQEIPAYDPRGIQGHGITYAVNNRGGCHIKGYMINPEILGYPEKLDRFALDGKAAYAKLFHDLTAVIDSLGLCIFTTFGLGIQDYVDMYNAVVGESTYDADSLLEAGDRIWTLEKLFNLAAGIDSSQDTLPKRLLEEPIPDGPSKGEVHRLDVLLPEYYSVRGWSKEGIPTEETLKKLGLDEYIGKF
To be noted: pH 5.5 or 6.5, 37 °C; CO-driven, ferredoxin, CODH/ACS, S. cerevisiae ADH, 0.2 mM NADH; total sodium acetate; apparent.

Substrate in series [1]: CCCC=O
The experiment in a line: purified protein. It is filed as biochemical, Clostridium autoethanogenum. Particulars: pH 8.0 (50 mM Tris-HCl), 37 °C, 5 mM methyl viologen, anaerobic, enzyme reactivated by preincubation with ferredoxin, apparent.

Substrate in series [2]: CC=O
The experiment in a line: purified protein. Format: biochemical, Clostridium autoethanogenum. Particulars: pH 8.0 (50 mM Tris-HCl), 37 °C, 5 mM methyl viologen, anaerobic, enzyme reactivated by preincubation with ferredoxin, apparent.

Substrate in series [3]: CCC=O
The experiment in a line: purified protein. It is filed as biochemical, Clostridium autoethanogenum. To be noted: pH 8.0 (50 mM Tris-HCl), 37 °C, 5 mM methyl viologen, anaerobic, enzyme reactivated by preincubation with ferredoxin, apparent.

Substrate in series [4]: CC(=O)O
Briefly: purified protein. To be noted: pH 5.5, 37 °C, CO-driven, ferredoxin, CODH/ACS, S. cerevisiae ADH, 0.2 mM NADH, concentration of protonated acid calculated from total acetate with pKa 4.76, apparent, estimated.

`CC(=O)O` [acetate]: the “kM^app” value on CaAFOR (AOR1) was “the high kM^app of CaAFOR for acetate”.

B1: CaAFOR (AOR1) (Clostridium autoethanogenum DSM 10061) (protein)
chain: T1 sequence (A0ABM5NPY3 1-607)
notes: native anaerobic purification from CO-grown cells; full length, no tag; monomer, expected mass 66,335 Da; holds [4Fe-4S] and tungstopterin
What is called Km is the concentration of substrate that gives half-maximal velocity. By kcat is commonly meant the maximal rate divided by the concentration of active sites. On to B1, for which the Km in the series “purified protein [1]” is 53.47 ± 19.45 µM; in “purified protein [2]”, 54.40 ± 12.55 µM; in “purified protein [3]”, 165.51 ± 50.50 µM; in the series “purified protein [4]” it was 1630 µM. Moreover, the kcat in “purified protein [1]” was found to be 4.27 ± 0.48 s⁻¹; in the series “purified protein [2]”, 4.42 ± 0.31 s⁻¹; in the series “purified protein [3]”, 10.35 ± 1.06 s⁻¹.
